The text below walks through data of patent CN117088968A.

For this assay, the target named is 2019-nCoV N蛋白抗原 (2019-nCoV (新型冠状病毒)) (UniProt P0DTC9). The assay is described as follows: AMC sensor, antibody captured at 10 μg/mL, N protein antigen in serial dilution in PBST.

Substance 对照 (antibody) had a Kd of 24.3 nM, a dissociation rate constant (koff) of 0.00011 s⁻¹ and a kon of 4520 M⁻¹ s⁻¹.

The term Kd denotes the concentration at which binding is half-saturated. Read a low Kd as higher affinity. Broadly, the koff is the first-order rate constant of dissociation. Low values mean slow dissociation, high ones fast dissociation. As a reminder, the kon is the rate constant with which the complex forms. Lower therefore signals slow association.
